{"source": "paper PMC10137048", "molecular_target": "amyloid beta (Aβ) peptide Aβ42"}
{"substance": "amyloid beta (Aβ) peptide Aβ42", "values": [{"measurement": "stoichiometry N", "result": "< 4"}]}
